Data published in patent US20180127504A1 (ACADEMIA SINICA, published 2018).

Columns and labels:
VEGFR2(1-7) = molecular target: T1, VEGFR2(1-7) (human, UniProt P35968 20-813); test: immunofluorescent staining of transfected 293T cells
T1 construct: Expressed on 293T cells; also called full-length extracellular region of VEGFR2, domains 1-7, Met1 to Leu813

VEGFR2(2-7) = molecular target: T2, VEGFR2(2-7) (human, UniProt P35968 111-813); test: as above
T2 construct: also called domains 2-7, Ala111 to Leu813

VEGFR2(4-7) = molecular target: T3, VEGFR2(4-7) (human, UniProt P35968 321-813); test: as above
T3 construct: also called domains 4-7, Phe321 to Leu813

VEGFR2(del2-3) = molecular target: T4, VEGFR2(del2-3) (human, UniProt P35968 20-813); test: as above
T4 construct: Expressed on 293T cells; also called VEGFR2 with domains 2 and 3 deleted

VEGFR2(del3) = molecular target: T5, VEGFR2(del3) (human, UniProt P35968 20-813); test: as above
T5 construct: Expressed on 293T cells; also called VEGFR2 with domain 3 deleted

VEGFR2(M1) = molecular target: T6, VEGFR2(M1) (human, UniProt P35968 20-813); test: as above
T6 construct: Expressed on 293T cells; single substitutions derived from the printed replacement of the six-residue stretch; also called VEGFR2-M1 mutant protein
T6 chain: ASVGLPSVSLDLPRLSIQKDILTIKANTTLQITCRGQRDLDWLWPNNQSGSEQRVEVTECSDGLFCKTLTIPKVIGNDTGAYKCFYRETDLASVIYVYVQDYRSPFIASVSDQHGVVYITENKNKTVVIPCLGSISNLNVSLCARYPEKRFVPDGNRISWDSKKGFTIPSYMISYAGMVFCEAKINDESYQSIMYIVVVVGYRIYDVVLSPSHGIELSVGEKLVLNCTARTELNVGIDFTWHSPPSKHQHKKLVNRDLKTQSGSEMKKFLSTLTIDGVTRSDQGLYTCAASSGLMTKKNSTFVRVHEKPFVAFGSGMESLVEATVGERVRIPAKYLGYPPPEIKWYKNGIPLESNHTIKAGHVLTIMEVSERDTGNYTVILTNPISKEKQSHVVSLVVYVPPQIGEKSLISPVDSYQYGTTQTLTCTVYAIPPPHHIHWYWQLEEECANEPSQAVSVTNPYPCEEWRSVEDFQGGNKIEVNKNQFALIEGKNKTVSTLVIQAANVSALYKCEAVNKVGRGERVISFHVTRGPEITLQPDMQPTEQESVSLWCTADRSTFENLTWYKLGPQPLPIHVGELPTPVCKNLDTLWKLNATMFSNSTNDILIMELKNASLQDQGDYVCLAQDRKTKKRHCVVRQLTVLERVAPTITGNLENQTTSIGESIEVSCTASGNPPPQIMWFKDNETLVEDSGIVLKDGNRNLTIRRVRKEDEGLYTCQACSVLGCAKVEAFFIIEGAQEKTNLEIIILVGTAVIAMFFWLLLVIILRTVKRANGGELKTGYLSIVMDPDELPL

VEGFR2(M2) = molecular target: T7, VEGFR2(M2) (human, UniProt P35968 20-813); test: as above
T7 construct: Expressed on 293T cells; single substitutions derived from the printed replacement of the seven-residue stretch
T7 chain: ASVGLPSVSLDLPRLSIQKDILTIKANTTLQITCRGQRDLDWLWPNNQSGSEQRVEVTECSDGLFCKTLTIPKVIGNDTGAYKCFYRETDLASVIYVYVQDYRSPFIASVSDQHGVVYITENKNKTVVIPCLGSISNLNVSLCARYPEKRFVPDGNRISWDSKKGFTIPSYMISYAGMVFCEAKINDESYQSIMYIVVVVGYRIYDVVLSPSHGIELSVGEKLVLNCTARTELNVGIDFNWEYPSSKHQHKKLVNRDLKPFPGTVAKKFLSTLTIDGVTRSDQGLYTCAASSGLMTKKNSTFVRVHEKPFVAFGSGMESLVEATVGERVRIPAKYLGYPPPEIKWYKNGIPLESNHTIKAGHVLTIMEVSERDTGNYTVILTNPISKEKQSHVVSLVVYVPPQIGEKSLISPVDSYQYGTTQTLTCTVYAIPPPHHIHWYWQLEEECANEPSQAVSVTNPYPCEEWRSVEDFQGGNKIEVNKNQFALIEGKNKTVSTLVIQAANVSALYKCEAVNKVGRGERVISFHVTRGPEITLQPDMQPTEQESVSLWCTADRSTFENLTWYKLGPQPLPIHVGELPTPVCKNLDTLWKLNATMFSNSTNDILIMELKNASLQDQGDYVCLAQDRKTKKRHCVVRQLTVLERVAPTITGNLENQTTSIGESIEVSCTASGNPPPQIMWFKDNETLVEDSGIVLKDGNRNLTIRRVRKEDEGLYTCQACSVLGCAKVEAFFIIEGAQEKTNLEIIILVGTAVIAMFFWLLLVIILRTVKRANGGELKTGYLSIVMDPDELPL

[1] = molecular target: T8, VEGFR2 on tumor vascular endothelium (frozen sections of human lung cancer specimens) (human, UniProt P35968); test: immunofluorescence on frozen sections of human lung cancer, scFv detected by anti-E tag and rhodamine secondary antibody, CD31 co-staining
T8 construct: endogenous, on CD31-positive tumor vascular endothelium in frozen tissue sections; also called human tumor vasculature

[2] = molecular target: T9, VEGFR2-Fc recombinant protein (R&D Systems) (human, UniProt P35968 20-764); test: SPR, BIACORE T100, VEGFR2-Fc coupled to CM5 chip, IgG as analyte
T9 construct: Bought protein; also called VEGFR2 recombinant protein; immobilized VEGFR2; not shown: Fc part of the bought fusion protein; not described
T9 sequence (P35968 20-764 limits assumed): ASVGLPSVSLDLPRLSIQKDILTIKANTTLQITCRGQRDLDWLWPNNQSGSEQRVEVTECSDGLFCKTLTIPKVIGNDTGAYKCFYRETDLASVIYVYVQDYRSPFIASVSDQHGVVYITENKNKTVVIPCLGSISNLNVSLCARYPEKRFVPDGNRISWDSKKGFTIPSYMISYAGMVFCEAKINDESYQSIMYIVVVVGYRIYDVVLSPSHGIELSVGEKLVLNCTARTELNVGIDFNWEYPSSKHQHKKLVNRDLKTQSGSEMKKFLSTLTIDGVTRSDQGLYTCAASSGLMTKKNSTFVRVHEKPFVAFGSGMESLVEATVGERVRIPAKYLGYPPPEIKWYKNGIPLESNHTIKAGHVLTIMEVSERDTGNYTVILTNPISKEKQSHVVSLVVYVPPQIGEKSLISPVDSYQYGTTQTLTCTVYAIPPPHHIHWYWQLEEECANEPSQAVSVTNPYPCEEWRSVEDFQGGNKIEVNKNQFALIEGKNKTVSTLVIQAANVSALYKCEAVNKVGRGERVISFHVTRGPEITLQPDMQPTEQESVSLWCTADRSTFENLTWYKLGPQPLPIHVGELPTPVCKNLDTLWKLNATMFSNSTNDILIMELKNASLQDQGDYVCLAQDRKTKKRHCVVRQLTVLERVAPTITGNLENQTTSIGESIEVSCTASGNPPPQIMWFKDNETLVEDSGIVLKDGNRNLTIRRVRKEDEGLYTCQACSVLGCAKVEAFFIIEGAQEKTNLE
Method: (§1) The affinity and kinetics of anti-VEGFR2 antibodies were measured by surface plasmon resonance in a BIACORE T100™ (GE healthcare). VEGFR2-Fc protein was coupled to an EDC- and NHS-activated CM5 sensor chip in a BIACORE flow cell, and then blocked with ethanolamine according to the manufacturer's directions. Associated and dissociated phases were monitored under continuous flow of 30 μl/min, using antibody concentrations ranging from 0.1 to 100 nM for 5 min. Regeneration was performed by injection of regenerate buffer (0.2 M NaCl, 10 mM glycine, pH 2.7). To determine binding constants, the sensorgrams were fit globally to a sample 1:1 interaction model using BIAevaluation software (GE healthcare).
(§2) We analyzed the affinity of both human antibodies to VEGFR2 using a BIACORE T100™.

[3] = molecular target: T9, VEGFR2-Fc recombinant protein (R&D …); test: solid-phase competitive ELISA: antibody against 4 nM VEGF-A on immobilized VEGFR2
[4] = molecular target: T9, VEGFR2-Fc recombinant protein (R&D …); test: surface plasmon resonance, BIACORE T100, VEGFR2-Fc coupled to a CM5 chip, purified IgG as analyte
Method: as §1, §2

c-Met-Fc control protein = molecular target: T10, c-Met-Fc control protein (UniProt P08581 25-932, limits assumed); test: phage ELISA on coated MET-Fc, anti-M13-HRP detection
T10 construct: Bought control protein; also called Met-Fc (R&D); c-Met-Fe; not shown: Fc part of the bought fusion protein; not described
T10 sequence (P08581 25-932 limits assumed): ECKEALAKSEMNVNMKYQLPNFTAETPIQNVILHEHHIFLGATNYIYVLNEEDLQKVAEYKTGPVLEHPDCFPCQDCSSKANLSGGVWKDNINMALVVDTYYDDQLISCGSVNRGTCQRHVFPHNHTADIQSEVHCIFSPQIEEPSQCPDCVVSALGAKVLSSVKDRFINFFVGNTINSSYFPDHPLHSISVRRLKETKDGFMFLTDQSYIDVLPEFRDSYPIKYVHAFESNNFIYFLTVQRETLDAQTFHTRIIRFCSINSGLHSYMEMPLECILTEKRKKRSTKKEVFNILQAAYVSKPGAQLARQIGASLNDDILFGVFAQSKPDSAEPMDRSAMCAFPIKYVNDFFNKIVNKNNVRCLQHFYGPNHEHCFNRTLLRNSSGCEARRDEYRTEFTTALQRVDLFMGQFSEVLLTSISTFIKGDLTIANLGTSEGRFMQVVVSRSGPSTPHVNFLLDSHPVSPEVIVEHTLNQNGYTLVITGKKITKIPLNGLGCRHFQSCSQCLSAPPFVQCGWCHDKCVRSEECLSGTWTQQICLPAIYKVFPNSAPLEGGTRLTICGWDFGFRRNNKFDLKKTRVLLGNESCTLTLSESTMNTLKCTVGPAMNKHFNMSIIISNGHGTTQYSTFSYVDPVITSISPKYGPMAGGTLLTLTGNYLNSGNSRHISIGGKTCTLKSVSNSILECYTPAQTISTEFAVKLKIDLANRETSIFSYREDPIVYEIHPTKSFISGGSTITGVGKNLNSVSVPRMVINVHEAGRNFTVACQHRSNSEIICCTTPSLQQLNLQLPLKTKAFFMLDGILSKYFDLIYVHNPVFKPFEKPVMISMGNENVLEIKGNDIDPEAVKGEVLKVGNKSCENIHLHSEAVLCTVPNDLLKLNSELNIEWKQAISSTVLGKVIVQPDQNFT
Method: (§3) The selected phages were further examined by ELISA screening. The 96-well plates were coated with […] of VEGFR2-Fc, Met-Fc (R&D), or BSA (Sigma) protein in 0.1 M sodium bicarbonate overnight at 4° C. After blocking with 1% BSA in PBS (w/v) for 2 hr at room temperature, 70-randomly selected phage clones were added to the plates at a 1:2 dilution in 1% BSA, and incubated for 1 hr at room temperature. Following washes with PBST, the plates were incubated with a 1:2000 dilution of horseradish peroxidase (HRP)-conjugated mouse anti-M13 phage antibody (GE) for 1 hr. After washing with PBST, the colorimetric reaction was developed with the peroxidase substrate ortho-phenylenediamine (OPD; Sigma) plus H₂O₂ for 15 min, and then terminated by the addition of 3 N HCl. The absorbance at 490 nm was determined using a microplate reader (SpectraMax, Molecular Devices). Plasmid DNA of positive clones were isolated and sequenced using the pCANTAB5 sequencing primer set.
(§4) After four rounds of affinity selection (biopanning), the titer of bound phage increased by as much as 3,455-fold (FIG. 1A).

[5] = molecular target: T9, VEGFR2-Fc recombinant protein (R&D …); test: phage ELISA, 1x10^9 cfu phage on coated VEGFR2-Fc, anti-M13-HRP detection
Method: as §3, §4

[6] = molecular target: T11, VEGFR2 on the cell surface of human umbilical vein endothelial cells (HUVEC) (human, UniProt P35968 20-1356); test: flow cytometry on HUVECs, 1x10^10 cfu phage, anti-M13 and PE-labelled secondary antibody
T11 construct: Endogenous receptor of human cells; also called cell-surface VEGFR2; cellular VEGFR2
T11 sequence (P35968 20-1356 limits assumed): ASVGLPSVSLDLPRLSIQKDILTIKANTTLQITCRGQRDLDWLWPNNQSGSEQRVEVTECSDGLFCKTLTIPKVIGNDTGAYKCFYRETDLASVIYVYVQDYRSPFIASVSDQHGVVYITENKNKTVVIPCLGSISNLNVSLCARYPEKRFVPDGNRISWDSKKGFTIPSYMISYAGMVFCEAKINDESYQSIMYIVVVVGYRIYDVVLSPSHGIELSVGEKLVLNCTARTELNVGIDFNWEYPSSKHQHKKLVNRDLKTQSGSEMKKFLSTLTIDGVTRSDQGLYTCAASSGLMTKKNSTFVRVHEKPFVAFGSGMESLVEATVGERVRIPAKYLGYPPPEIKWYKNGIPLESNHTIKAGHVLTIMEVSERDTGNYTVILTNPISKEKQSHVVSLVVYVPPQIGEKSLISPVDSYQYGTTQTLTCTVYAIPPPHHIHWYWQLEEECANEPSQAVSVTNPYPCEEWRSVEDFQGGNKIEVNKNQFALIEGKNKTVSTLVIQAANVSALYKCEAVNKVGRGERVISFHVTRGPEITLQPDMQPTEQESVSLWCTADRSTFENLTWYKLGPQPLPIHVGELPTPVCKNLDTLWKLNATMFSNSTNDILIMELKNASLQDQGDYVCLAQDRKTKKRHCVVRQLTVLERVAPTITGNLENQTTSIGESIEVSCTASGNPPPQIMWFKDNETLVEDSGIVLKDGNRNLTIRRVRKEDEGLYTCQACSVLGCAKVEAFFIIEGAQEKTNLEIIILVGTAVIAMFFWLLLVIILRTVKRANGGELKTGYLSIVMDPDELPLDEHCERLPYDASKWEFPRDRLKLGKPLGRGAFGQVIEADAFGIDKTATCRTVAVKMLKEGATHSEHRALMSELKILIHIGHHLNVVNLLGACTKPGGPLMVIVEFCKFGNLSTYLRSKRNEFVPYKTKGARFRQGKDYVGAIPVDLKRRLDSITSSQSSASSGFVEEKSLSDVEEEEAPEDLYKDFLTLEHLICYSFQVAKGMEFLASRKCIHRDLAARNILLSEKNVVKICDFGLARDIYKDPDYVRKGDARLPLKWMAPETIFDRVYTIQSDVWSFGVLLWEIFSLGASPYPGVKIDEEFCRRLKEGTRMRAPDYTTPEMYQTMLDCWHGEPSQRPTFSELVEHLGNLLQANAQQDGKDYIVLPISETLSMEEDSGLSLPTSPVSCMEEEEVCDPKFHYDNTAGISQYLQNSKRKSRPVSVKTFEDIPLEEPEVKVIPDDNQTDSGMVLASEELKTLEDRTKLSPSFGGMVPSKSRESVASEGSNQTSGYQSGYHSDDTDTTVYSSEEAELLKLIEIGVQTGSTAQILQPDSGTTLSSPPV
Method: About 1×10⁴ HUVEC were incubated with the selected anti-VEGFR2 phage clones at 4° C. for 1 hour in FACS buffer (PBS containing 1% fetal bovine serum). After the cells were washed with FACS buffer, they were first incubated with mouse anti-M13 phage Ab for 1 hr at 4° C., and then with R-phycoerythrin-conjugated goat anti-mouse IgG (Jackson Immuno Research) for 30 min at 4° C. Flow cytometry was performed with a FACSCantoII (BD), and emission fluorescence intensity was measured with FACS Diva software (BD) to quantitatively compare binding affinities.
as §4

B1: R2S12 (scFv, V domains shown)
VH: QVNLRESGGGLVKPGGSLRLSCAASGFTFGSYTMNWVRQAPGKGLEWVASITSGSSYIFYTDSVKGRFTISRDNSRSSLFLQMNSLRAEDTAIYYCARGSASAFDIWGQGTMVTVSS
VL: DIQMTQSPSSLSASVGDRVTITCKASDDIINYLNWYQQKPGEAPKLLIYDASILETGVPSRFSGSGSGTDFTFTISSLQPEDIATYYCQQYDILPLTFGGGTKLEIK
notes: Soluble scFv made in E. coli HB2151 from phage clone R2PC12, with E tag; also called soluble anti-VEGFR2 scFv from phage clone R2PC12
binding result (VEGFR2(1-7)): binds | binding result (VEGFR2(2-7)): binds | binding result (VEGFR2(4-7)): no binding | binding result (VEGFR2(del2-3)): no binding | binding result (VEGFR2(del3)): no binding | binding result (VEGFR2(M1)): no binding | binding result (VEGFR2(M2)): binds | binding result [1]: binds

B2: anti-VEGFR2-AF fully human antibody (hAb) (antibody, human IgG1)
heavy: not shown
light: DIQMTQSPSSLSASVGDRVTITCKASDDIINYLNWYQQKPGEAPKLLIYDASILETGVPSRFSGSGSGTDFTFTISSLQPEDIATYYCQQLDDIPITFGGGTKLEIK
notes: also called anti-VEGFR2-AF hAb; R2S12-AF in human IgG1 backbone; not shown: kappa constant region of vector p-Kappa-HuGs
Kd [2]: 0.264 nM | IC50 [3]: 0.88 nM | koff [4]: 0.000442 s⁻¹ | kon [4]: 1.67e+06 M⁻¹ s⁻¹

B3: anti-VEGFR2 fully human antibody (hAb) (antibody)
heavy: not shown
light: DIQMTQSPSSLSASVGDRVTITCKASDDIINYLNWYQQKPGEAPKLLIYDASILETGVPSRFSGSGSGTDFTFTISSLQPEDIATYYCQQYDILPLTFGGGTKLEIK
notes: also called anti-VEGFR2 hAb; R2S12 in human IgG1 backbone; not shown: kappa constant region of vector p-Kappa-HuGs
Kd [2]: 2.1 nM | IC50 [3]: 1.87 nM | koff [4]: 0.000472 s⁻¹ | kon [4]: 225000 M⁻¹ s⁻¹

B4: R2PC45 (scFv, V domains shown)
VH: QVNLRESGGGVVQPGRSLRLSCAASGFTFSSYAMHWVRQAPGKGLEWVAVISYDGSNKYYADSVKGRFTISRDNSKNTLYLQMNSLRAEDTAVYYCAREQDYGSSSGDAFDIWGQGTMVTVSS
VL: DIQMTQSPSSLSASVGDRVTITCRASQRISSYLNWYQQKPGKAPKLLIYDASNLQSGVPSRFSGSGSGTDFTLTINGLQPDDFAIYFCHQSYSAPPTFGQGTKVEIK
notes: also called anti-VEGFR2 scFv phage clone 45
binding result (c-Met-Fc control protein): no binding (tested: 1x10^9 cfu) | binding result [5]: binds | binding result [6]: binds

B5: R2S8 (scFv, V domains shown)
VH: QVQLVQSGGGLVKPGGSLRLSCAASGFTFSSYSMSWVRQAPGKGLEWVSSISSSSSYIYYADSVKGRFTISRDNAKNSLYLQMNSLRAEDTAVYYCARSTDAFDIWGQGTMVTVSS
VL: DIVMTQSPSSLSASVGDRVTITCRASQRISNYLNWYQHKSGEDPKLLIYAASSLQSGVPSRFSGSGSGTDFTLTISSLQPEDFATYYCQQYDRYPPTFGQGTKLEIK
notes: also called soluble anti-VEGFR2 scFv from phage clone R2PC8
binding result (VEGFR2(1-7)): binds | binding result (VEGFR2(2-7)): binds | binding result (VEGFR2(4-7)): no binding | binding result (VEGFR2(del2-3)): no binding | binding result (VEGFR2(del3)): no binding | binding result (VEGFR2(M1)): no binding | binding result (VEGFR2(M2)): binds | binding result [1]: binds

B6: R2S28 (scFv, V domains shown)
VH: EVQLVESGGALVQPGGSLRLSCVGSEFTFSHYNLHWVRQAPGKGLEWLAVISDDGRNKYYGDSVKGRFTISRDNSKNTLYLQMNGLRAEDTAVYYCARVPTVWRGGVYDIWGQGTMVTVSS
VL: EIVLTQSPATLSLSPGERATLSCRASQSVGSYLAWYQQRPGQPPRLLIYDASNRATGVAARFSGSGSGTDFTLTIDSLEAEDAATYYCHQSSSLPRTFGQGTKLEIK
notes: also called soluble anti-VEGFR2 scFv from phage clone R2PC28
binding result (VEGFR2(1-7)): binds | binding result (VEGFR2(2-7)): no binding | binding result (VEGFR2(4-7)): no binding | binding result (VEGFR2(del2-3)): binds | binding result (VEGFR2(del3)): binds | binding result (VEGFR2(M1)): binds | binding result (VEGFR2(M2)): binds | binding result [1]: binds
